In this data set the test system is MS2 coat protein. In words: apparent KD of MS2 coat protein; designed switch direction (-1 OFF switch, 1 ON switch): -1; higher = weaker reporter binding. Summed up: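 For each design, the apparent KD is the median over clusters of curves fitted to normalised cluster fluorescence. Clusters held RNA switches with common flanks, transcribed on Illumina chips by stalled E. coli RNA polymerase. These were titrated with SNAP-549-labelled MS2 coat protein, doubling from 0.7 or 1.5 nM to 3 µM, without input, with 200 uM small-molecule ligand, or with an oligonucleotide input.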

Where [1] appears, read: input ligand: microRNA oligo, concentration not stated.
Where [2] appears, read: Eterna round: R95, input ligand: FMN 200 uM.
Setting [3] is: Eterna round: R95, input ligand: microRNA oligo, concentration not stated.
The mark [4] stands for this setting: Eterna round: R95, input ligand: none.

As for “UACCUGAGGCAAAGCUUUAGGCUUACAUGAGGAUCACCCAUGUAGGAUAUGGUAGGCUUUGCUUACCAGAAGGACAUGGAAAUU [Mat - Exclusion NG 3 - Mod of JL - D22] (Eterna round: R96, puzzle: Exclusion NG 3)”, the “apparent KD of MS2 coat protein” value came out at 64.3 nM (input ligand: FMN 200 uM), 18 nM under setting [1] and 19.1 nM (input ligand: none).

With “UACCUGAGGCUUUGCUUUAGGCUUACAUGAGGAUCACCCAUGUAGGAUAUGGUAGGCAAAGCUUACCAGAAGGACAUGGAAAUU [Mat - Exclusion NG 3 - Mod of JL - D21] (Eterna round: R96, puzzle: Exclusion NG 3)”, under setting [1], the “apparent KD of MS2 coat protein” value turned out to be 13.2 nM.

Turning to “UACGAAGAGUGAGGAUAUGUGCGACAAAGUUGCACAGAAGGCACAUGAGGAUCACCCAUGUGAGCUAGGUCGAAAGACCUAGCG [Omei Exc(NG)1 Av6] (Eterna round: R96, puzzle: Exclusion NG 1)”, the “apparent KD of MS2 coat protein” value came out at 37 nM (input ligand: FMN 200 uM), 13.6 nM under setting [1] and 19.7 nM (input ligand: none).

Regarding “UACGAGUUAGGAUAUGCAAUGGGCUCGCUUUCCUUCGAUAAACUUGAGGAUCACCCAAGUAGAAGGAACUUGUA [Mod 36 - Jieux - Exclusion 2] (Eterna round: R97, puzzle: Exclusion 2)”, the “apparent KD of MS2 coat protein” value came out at 19.9 nM (input ligand: FMN 200 uM) and 16.2 nM (input ligand: none).

For “UACUAAAAGGAGGAUAUCGUAUCGGAAACGAUACGAGAAGGCUUAACAUGAGGAUCACCCAUGUUCUUCAAUAA [Mat - Exclusion 6 - Eli Mod - D88] (puzzle: Exclusion 6)”, the “apparent KD of MS2 coat protein” value amounted to 24.6 nM under setting [2], 17.3 nM under setting [3] and 16.4 nM under setting [4].

In the case of “UACUAAAAGGAGGAUAUCGUAUCGGAGACGAUACGAGAAGGCUUAACAUGAGGAUCACCCAUGUUCUUCAAUAU [Mat - Exclusion 6 - Eli Mod - D96] (puzzle: Exclusion 6)”, the “apparent KD of MS2 coat protein” value under setting [3] came to 14.8 nM.

As to “UAGAAGGUAGGAUAUACGAAUAAAUAGGGUAGGAAGAAGACACAUGAGGAUCACCCAUGUAGAAGGACCAAGAU [Mat - Exclusion 2 - Mod of my Tesla design - D34] (puzzle: Exclusion 2)”, the “apparent KD of MS2 coat protein” value reads like this: under setting [2], 36.6 nM; under setting [3], 17.5 nM; under setting [4], 18.5 nM.

For the sequence “UAGAAUCGAGGAUAUACAUGAGGAUCACCCAUGUGUGGCCAUUUGGUGUGGUCGUCAGGUAGAAGGCGAUUACA [Exclusion 3 - Mod of Jieux's Gilly Gone Silly 23 v.5] (Eterna round: R96, puzzle: Exclusion 3)”, the “apparent KD of MS2 coat protein” value (input ligand: FMN 200 uM) was 173 nM, the “apparent KD of MS2 coat protein” value under setting [1] stood at 211 nM and the “apparent KD of MS2 coat protein” value (input ligand: none) is 412 nM.

Consider “UAGAAUCGAGGAUAUACAUGAGGAUCACCCAUGUGUGGCCAUUUGGUGUGGUCGUCAGGUAGAAGGCGAUUACA [Exclusion 3 - Mod of Jieux's Gilly Gone Silly 23 v.5] (puzzle: Exclusion 3)”, for which, under setting [3], the “apparent KD of MS2 coat protein” value was 141 nM.

For “UAGAAUCGAGGAUAUACAUGAGGAUCACCCAUGUGUUGCCGCGUGAUGUGUUUGUCAGGUAGAAGGCGAUUAUA [Exclusion 3 - Mod of Jieux's Gilly Gone Silly 23 v.8] (puzzle: Exclusion 3)”, the “apparent KD of MS2 coat protein” value under setting [3] is 63.8 nM.

Turning to “UAGAGACAUGAGGAUCACCCAUGUCAGGAUAUCUGCUUAGACAGGUUCACGGUCUAGUAGAGAAGGGACUGGAG [Eternabot (L2) Solution 42] (Eterna round: R97, puzzle: Exclusion 1)”, the “apparent KD of MS2 coat protein” value is 121 nM (input ligand: FMN 200 uM) and 87.4 nM (input ligand: none).

As to “UAGAUGCUCAGGGAGUGUGACAUGAGGAUCACCCAUGUGGUGGUAGGGAACAAGCUUUUUGCACGUACUUAUGAGUA [JR_SV3TOV1_Sub007] (Eterna round: R96, puzzle: Sensor v3, turn-off variant 1)”, the “apparent KD of MS2 coat protein” value is 435 nM (input ligand: FMN 200 uM), 148 nM under setting [1] and 497 nM (input ligand: none).

As for “UAGAUGCUCAGGGAGUGUGACAUGAGGAUCACCCAUGUGGUGGUAGGGAACAAGCUUUUUGCACGUACUUAUGAGUA [JR_SV3TOV1_Sub007] (puzzle: Sensor v3, turn-off variant 1)”, the “apparent KD of MS2 coat protein” value under setting [2] stood at 64.9 nM, the “apparent KD of MS2 coat protein” value under setting [3] turned out to be 18.3 nM and the “apparent KD of MS2 coat protein” value under setting [4] is 117 nM.

As for “UAGAUGGGAGGAUAUGCAUAGAUACAGAUUCAUGUAGUGCUACAUGAGGAUCACCCAUGUAGAAGGCCCGUCUU [JL-ex2-2.20 Mayanne mod] (Eterna round: R96, puzzle: Exclusion 2)”, the “apparent KD of MS2 coat protein” value reads like this: (input ligand: FMN 200 uM) 208 nM; under setting [1], 22.1 nM; (input ligand: none) 24.1 nM.

As to “UAGAUGGGAGGAUAUGCAUAGAUACAGAUUCAUGUAGUGCUACAUGAGGAUCACCCAUGUAGAAGGCCCGUCUU [JL-ex2-2.20 Mayanne mod] (puzzle: Exclusion 2)”, the “apparent KD of MS2 coat protein” value under setting [3] came to 19.9 nM.

For “UAGAUGGGAGGAUAUGCAUAGAUACAGAUUCGUGUAGUGCUACAUGAGGAUCACCCAUGUAGAAGGCCCGUCUU [JL-ex2-2.22 Mayanne mod] (puzzle: Exclusion 2)”, under setting [3], the “apparent KD of MS2 coat protein” value was 14.2 nM.

With “UAGAUGGGAGGAUAUGCGUAGAUACGGAUUCGUGUAGUGCUACAUGAGGAUCACCCAUGUAGAAGGCCCGUCUU [JL-ex2-2.28 Mayanne mod] (puzzle: Exclusion 2)”, under setting [3], the “apparent KD of MS2 coat protein” value is 13.9 nM.

In the case of “UAGCAUUGCCUUUGGUAGUGCCUUACAUGAGGAUCACCCAUGUAGGAUAUGGUAGGCUUUGCUUACCAGAAGGACAUGGUAAUU [JL ENG3 1.06] (Eterna round: R96, puzzle: Exclusion NG 3)”, the “apparent KD of MS2 coat protein” value under setting [1] was determined as 54.1 nM.

Take “UAGCAUUGCCUUUGGUAGUGCUAUACAUGAGGAUCACCCAUGUAGGAUAUGGUCGGCUUUGCUGACCAGAAGGACAUGUGUAUU [MOD2 ENG3 1.04 by JL] (Eterna round: R96, puzzle: Exclusion NG 3)”: the “apparent KD of MS2 coat protein” value (input ligand: FMN 200 uM) was found to be 159 nM, the “apparent KD of MS2 coat protein” value under setting [1] came out at 91.5 nM and the “apparent KD of MS2 coat protein” value (input ligand: none) is 93.1 nM.

Regarding “UAGGCACCUGCAGGAUAUUAGAGGCGCUUUCUGUAAGAAGGGCAGGUUCACAUGAGGAUCACCCAUGUAAAGAACAGCAUGGCA [Eternabot solution 24] (Eterna round: R96, puzzle: Exclusion NG 1)”, the “apparent KD of MS2 coat protein” value (input ligand: FMN 200 uM) was determined as 23.1 nM, the “apparent KD of MS2 coat protein” value under setting [1] amounted to 17.4 nM and the “apparent KD of MS2 coat protein” value (input ligand: none) was found to be 28.9 nM.

As for “UAGGUACAUGAGGAUCACCCAUGUGAGGAUAUAGUUGAAGAUUGCGAGAGGUUGAGGACUAGAAGGCACAGUGG [JR_Exclu1_Sub038] (puzzle: Exclusion 1)”, the “apparent KD of MS2 coat protein” value by setting is: under setting [2], 137 nM; under setting [3], 63.5 nM; under setting [4], 90.2 nM.

Regarding “UAGGUGUGAGGAUAUGGUAAAGAUAAGAUGAUGAAAGAACUCCAGAAGGCACAUGAGGAUCACCCAUGUAGAUG [JL-ex4-2.16 Jieux mod] (puzzle: Exclusion 4)”, the “apparent KD of MS2 coat protein” value under setting [3] is 33.3 nM.

As for “UAGUAUAUCUAUGGGAGUAACAUGAGGAUCACCCAUGUAUGUCUUGUUUUUUGUUCGUCAUAGGCCGGUUGAACGGU [JR_SV3TOV1_Sub027] (puzzle: Sensor v3, turn-off variant 1)”, the “apparent KD of MS2 coat protein” value by setting is: under setting [2], 23.3 nM; under setting [3], 27.7 nM; under setting [4], 26.5 nM.

Source of the values: the supplement of paper PMC9170038.
